Data reported in paper PMC11081419.

Target: CCL18 (human) (UniProt P55774)
Test: SPR
Settings: domain or fragment

Sequence of CCL18 (human) (P55774 21-89): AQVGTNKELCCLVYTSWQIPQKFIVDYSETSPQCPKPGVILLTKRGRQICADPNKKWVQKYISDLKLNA
Sequence of EVA‐ACA1001(ΔN) (A0A023FFD0 29-136, stated change not applied): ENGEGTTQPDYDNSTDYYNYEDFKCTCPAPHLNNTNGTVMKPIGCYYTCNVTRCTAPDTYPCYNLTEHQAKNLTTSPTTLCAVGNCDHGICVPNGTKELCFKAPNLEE

In the case of “EVA‐ACA1001(ΔN) (from UniProt A0A023FFD0)”, the Kd is reported as < 0.1 nM.
